The results in this text go back to patent US20240270821A1, “GIP/GLP1/GCG TRI-RECEPTOR AGONISTS AND USES THEREOF” (priority 2023, published 2024).

Assay in all cases: cell-based or functional assay
Experiment [1] concerns the target human glucagon receptor (human) (UniProt P47871).
Experiment [2] addresses hGLP-1R (Homo sapiens, UniProt P43220).
Experiment [3] has as its target human GLP-1R (SNAP-GLP-1R expressed in HEK293 cells) (human) (UniProt P43220).
The target in experiment [4] is T1, human GIP receptor (human) (UniProt P48546).
T1 sequence (looked up): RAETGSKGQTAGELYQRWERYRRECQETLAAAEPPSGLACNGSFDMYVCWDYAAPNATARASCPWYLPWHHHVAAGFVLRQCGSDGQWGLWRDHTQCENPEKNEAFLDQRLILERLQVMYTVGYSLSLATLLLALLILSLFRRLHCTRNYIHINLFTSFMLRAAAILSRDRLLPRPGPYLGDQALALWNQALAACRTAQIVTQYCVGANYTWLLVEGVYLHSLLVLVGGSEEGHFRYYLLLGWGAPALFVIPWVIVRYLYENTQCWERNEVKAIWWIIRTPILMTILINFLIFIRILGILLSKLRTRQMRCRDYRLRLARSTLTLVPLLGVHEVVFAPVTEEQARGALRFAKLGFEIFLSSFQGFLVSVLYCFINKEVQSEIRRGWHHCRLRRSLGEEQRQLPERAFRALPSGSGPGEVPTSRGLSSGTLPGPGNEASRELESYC

human glucagon receptor (human), sequence (P47871 26-477): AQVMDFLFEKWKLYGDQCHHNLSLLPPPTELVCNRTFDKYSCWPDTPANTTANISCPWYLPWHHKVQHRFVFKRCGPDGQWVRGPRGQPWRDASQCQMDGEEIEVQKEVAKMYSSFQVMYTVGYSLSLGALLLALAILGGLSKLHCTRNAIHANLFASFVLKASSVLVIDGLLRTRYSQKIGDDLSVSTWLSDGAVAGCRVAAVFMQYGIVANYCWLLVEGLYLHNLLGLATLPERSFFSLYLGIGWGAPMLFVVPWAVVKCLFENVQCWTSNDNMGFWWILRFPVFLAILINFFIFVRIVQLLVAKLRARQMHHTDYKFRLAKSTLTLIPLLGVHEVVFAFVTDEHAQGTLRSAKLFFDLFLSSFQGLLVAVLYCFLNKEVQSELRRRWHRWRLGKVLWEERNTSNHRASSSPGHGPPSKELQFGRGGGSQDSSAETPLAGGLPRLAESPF
human GLP-1R (SNAP-GLP-1R expressed in HEK293 cells) (human), sequence (P43220 24-463): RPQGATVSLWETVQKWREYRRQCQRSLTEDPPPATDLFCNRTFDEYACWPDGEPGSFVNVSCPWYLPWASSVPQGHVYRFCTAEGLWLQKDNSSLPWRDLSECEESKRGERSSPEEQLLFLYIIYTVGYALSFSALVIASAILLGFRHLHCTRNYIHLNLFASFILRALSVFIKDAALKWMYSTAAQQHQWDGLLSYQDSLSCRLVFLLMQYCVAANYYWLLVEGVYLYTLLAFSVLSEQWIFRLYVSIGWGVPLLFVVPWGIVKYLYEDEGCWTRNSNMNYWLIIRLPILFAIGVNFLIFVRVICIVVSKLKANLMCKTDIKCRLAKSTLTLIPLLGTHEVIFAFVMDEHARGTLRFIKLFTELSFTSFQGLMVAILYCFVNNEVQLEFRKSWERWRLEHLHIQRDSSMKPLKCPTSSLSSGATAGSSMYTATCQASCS
hGLP-1R, sequence (P43220 24-463): as above

B1: Example 121 (peptide)
chain: YXQGTFTSDFSXXLDKKAQXAFIEWLLEGGPSSGAPPPEGS
modifications: synthetic construct; SITE 2: note = 2-Aminoisobutyric Acid; SITE 12: note = L-ornithine; SITE 13: note = alpha-methyl-leucine; SITE 17: note = Lysine is chemically modified through conjugation of the epsilon-amino group of the Lysine side chain with (2-[2-(2-Amino-ethoxy)-ethoxy]-acetyl)-(gamma-Glu)
Regarding B1, in experiment [1], the Relative cAMP EC50 is 4.89 nM and the cAMP Rel EC50, nM (in the presence of 1% HSA) was found to be 442 nM. Also, in experiment [2], the Relative cAMP EC50 came to 2.38 nM and the cAMP Rel EC50, nM (in the presence of 1% HSA) came to 348 nM. In experiment [3], this molecule returned a GLP1R Internalization EC50 of 38.1 nM and an Internalization % TOP of 46.3%. Besides, in experiment [4], the Relative cAMP EC50 worked out at 0.172 nM and the cAMP Rel EC50, nM (in the presence of 1% HSA) is 24.6 nM.

B2: Example 107 (peptide)
chain: YXQGTFTSDFSXXLDKKAQXAFIEYLLEGGPSSGAPPPSGE
modifications: synthetic construct; SITE 2: note = 2-Aminoisobutyric Acid; SITE 12: note = L-ornithine; SITE 13: note = alpha-methyl-leucine; SITE 17: note = Lysine is chemically modified through conjugation of the epsilon-amino group of the Lysine side chain with (2-[2-(2-Amino-ethoxy)-ethoxy]-acetyl)2-(gamma-Glu)
Regarding B2, in experiment [1], the Relative cAMP EC50 is 10.8 nM and the cAMP Rel EC50, nM (in the presence of 1% HSA) is 1690 nM. In experiment [2], the Relative cAMP EC50 came out at 8.5 nM and the cAMP Rel EC50, nM (in the presence of 1% HSA) amounted to 1110 nM. In experiment [3], this molecule came in with a GLP1R Internalization EC50 of 150 nM and an Internalization % TOP of 45.1%. Further, in experiment [4], the Relative cAMP EC50 was 0.426 nM and the cAMP Rel EC50, nM (in the presence of 1% HSA) is 61.3 nM.

B3: Example 114 (peptide)
chain: YXQGTFTSDXSRXLDKKAQXAFIEYLLEXGPSSGAPPPSGE
modifications: synthetic construct; SITE 2: note = 2-Aminoisobutyric Acid; SITE 10: note = 3-(4-Pyridyl)-L-alanine; SITE 13: note = alpha-methyl-leucine; SITE 17: note = Lysine is chemically modified through conjugation of the epsilon-amino group of the Lysine side chain with (2-[2-(2-Amino-ethoxy)-ethoxy]-acetyl)
As to B3, the cAMP Rel EC50, nM (in the presence of 1% HSA) worked out at 1120 nM in experiment [1], 1370 nM in experiment [2] and 19.6 nM in experiment [4]. In experiment [3], the GLP1R Internalization EC50 came to 47.2 nM. The Internalization % TOP in experiment [3] was found to be 62.9%.

B4: Example 118 (peptide)
chain: YXQGTFTSDFSXXLDKKAQXAFIEYLLEGGPSSGAPPPGES
modifications: synthetic construct; SITE 2: note = 2-Aminoisobutyric Acid; SITE 12: note = L-ornithine; SITE 13: note = alpha-methyl-leucine; SITE 17: note = Lysine is chemically modified through conjugation of the epsilon-amino group of the Lysine side chain with (2-[2-(2-Amino-ethoxy)-ethoxy]-acetyl)2-(gamma-Glu)
Consider B4, for which, in experiment [1], the Relative cAMP EC50 was 7.02 nM and the cAMP Rel EC50, nM (in the presence of 1% HSA) was found to be 2460 nM. In experiment [2], the Relative cAMP EC50 is 6.03 nM and the cAMP Rel EC50, nM (in the presence of 1% HSA) worked out at 1450 nM. In experiment [3], this molecule returned a GLP1R Internalization EC50 of 82.3 nM and an Internalization % TOP of 46.4%. In addition, in experiment [4], the Relative cAMP EC50 came out at 0.43 nM and the cAMP Rel EC50, nM (in the presence of 1% HSA) came to 63.4 nM.

B5: Example 113 (peptide)
chain: YXQGTFTSDXSRXLDKKAQXAFIEYLLAGGPSSGAPPPSGE
modifications: synthetic construct; SITE 2: note = 2-Aminoisobutyric Acid; SITE 10: note = 3-(4-Pyridyl)-L-alanine; SITE 13: note = alpha-methyl-leucine; SITE 17: note = Lysine is chemically modified through conjugation of the epsilon-amino group of the Lysine side chain with (2-[2-(2-Amino-ethoxy)-ethoxy]-acetyl)
In the case of B5, the Relative cAMP EC50 in experiment [1] was found to be 12 nM; in experiment [2], 3.93 nM; in experiment [4], 0.24 nM. Besides, the cAMP Rel EC50, nM (in the presence of 1% HSA) in experiment [1] amounted to 2090 nM; in experiment [2] it was 467 nM; in experiment [4], 32.3 nM. Moreover, in experiment [3], the GLP1R Internalization EC50 turned out to be 39.5 nM. In experiment [3], this molecule returned an Internalization % TOP of 64.6%.

B6: Example 362 (peptide)
chain: YXQGTFTSDYSQXLDKKAQXAFIEYLLEGGESSGAPPPSGS
modifications: synthetic construct; SITE 2: note = 2-Aminoisobutyric Acid; SITE 13: note = alpha-methyl-leucine; SITE 17: note = Lysine is chemically modified through conjugation of the epsilon-amino group of the Lysine side chain with (2-[2-(2-Amino-ethoxy)-ethoxy]-acetyl)-(gamma-Glu)-CO-(CH2) 16-CO2H; SITE 20: n
In experiment [1], B6 showed a Relative cAMP EC50 of 6.04 nM and a cAMP Rel EC50, nM (1% HSA) of 1450 nM. Besides, in experiment [2], the Relative cAMP EC50 came to 1.77 nM and the cAMP Rel EC50, nM (1% HSA) worked out at 450 nM. In experiment [3], this molecule displayed a GLP1R Internalization EC50 of 22.8 nM and an Internalization % TOP of 77.5%. In experiment [4], this molecule returned a Relative cAMP EC50 of 0.262 nM and a cAMP Rel EC50, nM (1% HSA) of 38.7 nM.

B7: Example 126 (peptide)
chain: YXQGTFTSDFSXXLDKKAQXAFIEWLLEGGHSSGAPPPEGS
modifications: synthetic construct; SITE 2: note = 2-Aminoisobutyric Acid; SITE 12: note = L-ornithine; SITE 13: note = alpha-methyl-leucine; SITE 17: note = Lysine is chemically modified through conjugation of the epsilon-amino group of the Lysine side chain with (2-[2-(2-Amino-ethoxy)-ethoxy]-acetyl)-(gamma-Glu)
B7: the values for the Relative cAMP EC50 in experiment [1], in experiment [2] and in experiment [4] were 6.81 nM, 3.97 nM and 0.264 nM, respectively. The cAMP Rel EC50, nM (in the presence of 1% HSA) in experiment [1] was 1120 nM; in experiment [2], 838 nM; in experiment [4], 40.3 nM. The same molecule had a GLP1R Internalization EC50 in experiment [3] of 63.2 nM. Also, in experiment [3], the Internalization % TOP came to 38.8%.

B8: Example 111 (peptide)
chain: YXQGTFTSDFSXXLDKKAQXAFIEYLLEXGPSSGAPPPSGE
modifications: synthetic construct; SITE 2: note = 2-Aminoisobutyric Acid; SITE 12: note = L-ornithine; SITE 13: note = alpha-methyl-leucine; SITE 17: note = Lysine is chemically modified through conjugation of the epsilon-amino group of the Lysine side chain with (2-[2-(2-Amino-ethoxy)-ethoxy]-acetyl)2-(gamma-Glu)
B8: in experiment [1], the Relative cAMP EC50 amounted to 4.25 nM and the cAMP Rel EC50, nM (in the presence of 1% HSA) was determined as 1260 nM. In experiment [2], the Relative cAMP EC50 amounted to 5.06 nM and the cAMP Rel EC50, nM (in the presence of 1% HSA) came out at 878 nM. In experiment [3], this molecule showed a GLP1R Internalization EC50 of 49.1 nM and an Internalization % TOP of 46.4%. For the same molecule, in experiment [4], the Relative cAMP EC50 worked out at 0.0888 nM and the cAMP Rel EC50, nM (in the presence of 1% HSA) turned out to be 10.4 nM.

B9: Example 110 (peptide)
chain: YXQGTFTSDFSXXLDKKAQXAFIEYLLEXGPSSGAPPPSGE
modifications: synthetic construct; SITE 2: note = 2-Aminoisobutyric Acid; SITE 12: note = L-ornithine; SITE 13: note = alpha-methyl-leucine; SITE 17: note = Lysine is chemically modified through conjugation of the epsilon-amino group of the Lysine side chain with (2-[2-(2-Amino-ethoxy)-ethoxy]-acetyl)-(gamma-Glu)
As for B9, the Relative cAMP EC50 in experiment [1] is 2.45 nM; in experiment [2] it was 2.99 nM; in experiment [4], 0.102 nM. For the same molecule, the cAMP Rel EC50, nM (in the presence of 1% HSA) in experiment [1] is 627 nM; in experiment [2] it was 821 nM; in experiment [4] it was 19.8 nM. In experiment [3], the GLP1R Internalization EC50 stood at 28.3 nM. This molecule came in with an Internalization % TOP in experiment [3] of 42.5%.
